From US11278600B2, “Human alpha-galactosidase variants” (Codexis, Inc., priority 2014, dated 2022) come the findings set out here.

Common to all, as to assay type: biochemical
Series [1] is described as follows: HTP-analysis of yeast culture supernatants, no challenge (MUGal hydrolysis). As to conditions: activity of the variant/activity of Rd2BB (SEQ ID NO: 10), yeast culture supernatant. A digest of the protocol: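 GLA variants expressed in yeast INVSc1, secreted into SD-Ura broth over 66-84 h at 30° C; clarified supernatants tested without challenge. Supernatant mixed with McIlvaine buffer pH 4.8 and 2 mM MUGal (citrate/KCl, pH 4.6), 37° C for 30-180 min, carbonate-quenched, fluorescence Ex 355/Em 448 nm.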

The nature of series [2]: HTP-analysis of supernatants pretreated with acid (MUGal hydrolysis). The settings on record: challenge at pH 4.2; activity of the variant/activity of Rd2BB (SEQ ID NO: 10); yeast culture supernatant. A digest of the protocol: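 MUGal hydrolysis was tracked by fluorescence (Ex 355 nm, Em 448 nm) after a 30-180 min reaction at 37° C. in pH 4.8 McIlvaine/citrate buffer, stopped with 1 M sodium carbonate. Beforehand, yeast (INVSc1) culture supernatants carrying GLA variants were held 1-3 h at 37° C. in acidic McIlvaine buffer, pH 3.3-4.3.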

Series [3] in a line: HTP-analysis of supernatants pretreated with base (MUGal hydrolysis). As to conditions: challenge at pH 7.6; activity of the variant/activity of Rd2BB (SEQ ID NO: 10); yeast culture supernatant. In short, it runs like this: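 Fluorescence of released 4-MU (Ex 355 nm, Em 448 nm) after carbonate quench reports MUGal hydrolysis by GLA variants secreted from INVSc1 yeast. Before the acidic (pH 4.3-4.8) 30-180 min reaction at 37° C, supernatants had been pre-incubated at pH 7.0-9.7 for 1-18 h at 37° C.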

A short description of series [4]: HTP-analysis of supernatants pretreated with bovine serum (MUGal hydrolysis). As to conditions: activity of the variant/activity of Rd2BB (SEQ ID NO: 10), yeast culture supernatant. As to the method:
Yeast (INVSc1) cells transformed with vectors expressing GLA and GLA variants using the lithium acetate method were selected on SD-Ura agar plates. After 72 h incubation at 30° C. colonies were placed into the wells of Axygen® 1.1 ml 96-well deep well plates filled with 200 μl/well SD-Ura broth (2 g/L SD-Ura, 6.8 g/L yeast nitrogen base without amino acids [Sigma Aldrich]), 3.06 g/L sodium dihydrogen phosphate, 0.804 g/L disodium hydrogen phosphate, pH 6.0 supplemented with 6% glucose. The cells were allowed to grow for 20-24 hours in a Kuhner shaker (250 rpm, 30° C., and 85% relative humidity). Overnight culture samples (20 μL) were transferred into Corning Costar® 96-well deep plates filled with 380 µL of SD-ura broth supplemented with 2% glucose. The plates were incubated for 66-84 h in a Kuhner shaker (250 rpm, 30° C., and 85% relative humidity). The cells were then pelleted (4000 rpm×20 min), and the supernatants isolated and stored at 4° C. prior to analysis.
GLA variants were challenged with bovine serum to simulate the conditions the variants encounter following infusion into a patient. First, 20 μL of yeast culture supernatant and 80 μL, of bovine serum were added to the wells of a 96-well round bottom plate. The plates were sealed and incubated at 37° C. for 1 h. For the assay, 50 μL of serum-challenged sample was mixed with 25 μL, of 1 M citrate buffer pH 4.3 and 25 μL, of 4 mM MUGal in McIlvaine buffer pH 4.8. The reactions were mixed briefly and incubated at 37° C. for 180 minutes, prior to quenching with 100 μL, of 1 M sodium carbonate. Hydrolysis was analyzed using a SpectraMax® M2 microplate reader monitoring fluorescence (Ex. 355 nm, Em. 448 nm).

Substitutions are numbered along the chain they refer to.

B1: 248 (protein)
chain: LDNGLARTPTMGWLHWERFMCNLDCQEEPDSCISEKLFMEMAELMVSEGWKDAGYEYLCIDDCWMAPQRDSEGRLQADPQRFPHGIRQLANYVHSKGLKLGIYADVGNKTCAGFPGSFGYYDIDAQTFADWGVDLLKFDGCYCDSLENLADGYKHMSLALNRTGRSIVYSCEWPLYMWPFQKPNYTEIRQYCNHWRNFADIDDSWASIKSILDWTSFNQETIVDVAGPGGWNDPDMLVIGNFGLSWNQQVTQMALWAIMAAPLFMSNDLRHISPQAKALLQDKDVIAINQDPLGKQGYQLRQGDNFEVWERPLSGLAWAVAVINRQEIGGPRSYTIAVASLGGGVACNPACFITQLLPVKRKLGFYEWTSRLKSHINPTGTVLLQLENTMQMSLKDLL
modifications: Synthetic Polypeptide sequence of Variant No. 248 of mature Human GLA
For the molecule B1, the “Relative Activity of GLA Variants After No Challenge (NC)” value in series [1] is “+ (+ = 0.5 to 1.5 relative activity over Rd2BB (SEQ ID NO: 10))”. Moreover, in series [2], the “Relative Activity of GLA Variants After Challenge at pH 4.2” value (“Relative Activity … at pH 4.2” for short) is reported as “+ (+ = 0.5 to 1.5 relative activity over Rd2BB (SEQ ID NO: 10))”. The “Relative Activity of GLA Variants After Challenge at pH 7.6” value (“Relative Activity … at pH 7.6” for short) in series [3] was “+ (+ = 0.5 to 1.5 relative activity over Rd2BB (SEQ ID NO: 10))”. Besides, in series [4], the “Relative Activity of GLA Variants After Challenge with Serum” value (“Relative Activity … with Serum” for short) was “+ (+ = 0.5 to 1.5 relative activity over Rd2BB (SEQ ID NO: 10))”.

B2: 251 (protein)
chain: B1 chain with K96I, F217R, T221R, N247D, V322M, G343K, K373R
modifications: Synthetic Polypeptide sequence of Variant No. 251 of mature Human GLA
On to B2, for which the “Relative Activity of GLA Variants After No Challenge (NC)” value in series [1] is “++ (++ = 1.5 to 2.5 relative activity over Rd2BB (SEQ ID NO: 10))”. Further, the “Relative Activity … at pH 4.2” value in series [2] was “+ (+ = 0.5 to 1.5 relative activity over Rd2BB (SEQ ID NO: 10))”. For the same molecule, in series [3], the “Relative Activity … at pH 7.6” value is “++ (++ = 1.5 to 2.5 relative activity over Rd2BB (SEQ ID NO: 10))”. Also, the “Relative Activity … with Serum” value in series [4] was “+ (+ = 0.5 to 1.5 relative activity over Rd2BB (SEQ ID NO: 10))”.

B3: 257 (protein)
chain: B1 chain with L100F, I208V, V322M, G343D, F365L, K373R, I376V
modifications: Synthetic Polypeptide sequence of Variant No. 257 of mature Human GLA
B3: the “Relative Activity of GLA Variants After No Challenge (NC)” value in series [1] is given as “++ (++ = 1.5 to 2.5 relative activity over Rd2BB (SEQ ID NO: 10))”. In addition, the “Relative Activity … at pH 4.2” value in series [2] was “++ (++ = 1.5 to 2.5 relative activity over Rd2BB (SEQ ID NO: 10))”. Also, in series [3], the “Relative Activity … at pH 7.6” value is on record as “++ (++ = 1.5 to 2.5 relative activity over Rd2BB (SEQ ID NO: 10))”. Also, the “Relative Activity … with Serum” value in series [4] is on record as “++ (++ = 1.5 to 2.5 relative activity over Rd2BB (SEQ ID NO: 10))”.

B4: 250 (protein)
chain: B1 chain with K96I, F217R, T221R, V322M, G343K, K373R
modifications: Synthetic Polypeptide sequence of Variant No. 250 of mature Human GLA
As to B4, the “Relative Activity of GLA Variants After No Challenge (NC)” value in series [1] is given as “+ (+ = 0.5 to 1.5 relative activity over Rd2BB (SEQ ID NO: 10))”. Further, the “Relative Activity … at pH 4.2” value in series [2] is given as “+ (+ = 0.5 to 1.5 relative activity over Rd2BB (SEQ ID NO: 10))”. The “Relative Activity … at pH 7.6” value in series [3] is listed as “+ (+ = 0.5 to 1.5 relative activity over Rd2BB (SEQ ID NO: 10))”. Moreover, the “Relative Activity … with Serum” value in series [4] is given as “+ (+ = 0.5 to 1.5 relative activity over Rd2BB (SEQ ID NO: 10))”.

B5: 254 (protein)
chain: B1 chain with L100F, T221R, V322M, G343K, K373R
modifications: Synthetic Polypeptide sequence of Variant No. 254 of mature Human GLA
Regarding B5, the “Relative Activity of GLA Variants After No Challenge (NC)” value in series [1] was “+ (+ = 0.5 to 1.5 relative activity over Rd2BB (SEQ ID NO: 10))”. Moreover, in series [2], the “Relative Activity … at pH 4.2” value is recorded as “+ (+ = 0.5 to 1.5 relative activity over Rd2BB (SEQ ID NO: 10))”. For the same molecule, the “Relative Activity … at pH 7.6” value in series [3] is “+ (+ = 0.5 to 1.5 relative activity over Rd2BB (SEQ ID NO: 10))”. Further, the “Relative Activity … with Serum” value in series [4] was “+ (+ = 0.5 to 1.5 relative activity over Rd2BB (SEQ ID NO: 10))”.

B6: 249 (protein)
chain: B1 chain with G343K
modifications: Synthetic Polypeptide sequence of Variant No. 249 of mature Human GLA
For the molecule B6, in series [1], the “Relative Activity of GLA Variants After No Challenge (NC)” value was “++ (++ = 1.5 to 2.5 relative activity over Rd2BB (SEQ ID NO: 10))”. Besides, in series [2], the “Relative Activity … at pH 4.2” value is recorded as “++ (++ = 1.5 to 2.5 relative activity over Rd2BB (SEQ ID NO: 10))”. In addition, the “Relative Activity … at pH 7.6” value in series [3] was “+++ (+++ = >2.5 relative activity over Rd2BB (SEQ ID NO: 10))”. For the same molecule, the “Relative Activity … with Serum” value in series [4] was “++ (++ = 1.5 to 2.5 relative activity over Rd2BB (SEQ ID NO: 10))”.

B7: 256 (protein)
chain: B1 chain with L100F, I208V, T221K, N247D, Q302K, G343D, F365L, K373R, I376V
modifications: Synthetic Polypeptide sequence of Variant No. 256 of mature Human GLA
Consider B7, for which the “Relative Activity of GLA Variants After No Challenge (NC)” value in series [1] was “++ (++ = 1.5 to 2.5 relative activity over Rd2BB (SEQ ID NO: 10))”. For the same molecule, in series [2], the “Relative Activity … at pH 4.2” value is “+++ (+++ = >2.5 relative activity over Rd2BB (SEQ ID NO: 10))”. Also, the “Relative Activity … at pH 7.6” value in series [3] is “+++ (+++ = >2.5 relative activity over Rd2BB (SEQ ID NO: 10))”. In addition, the “Relative Activity … with Serum” value in series [4] was “+++ (+++ = >2.5 relative activity over Rd2BB (SEQ ID NO: 10))”.

B8: 252 (protein)
chain: B1 chain with K96I, T221R, N247D, V322M, G343K, A350G, E367D, T369D, K373R
modifications: Synthetic Polypeptide sequence of Variant No. 252 of mature Human GLA
Regarding B8, in series [1], the “Relative Activity of GLA Variants After No Challenge (NC)” value is recorded as “+++ (+++ = >2.5 relative activity over Rd2BB (SEQ ID NO: 10))”. Besides, the “Relative Activity … at pH 4.2” value in series [2] is given as “+++ (+++ = >2.5 relative activity over Rd2BB (SEQ ID NO: 10))”. Also, the “Relative Activity … at pH 7.6” value in series [3] was “+++ (+++ = >2.5 relative activity over Rd2BB (SEQ ID NO: 10))”. Further, the “Relative Activity … with Serum” value in series [4] was “+++ (+++ = >2.5 relative activity over Rd2BB (SEQ ID NO: 10))”.

B9: 255 (protein)
chain: B1 chain with L100F, I208V, T221K, N247D, Q302K, V322I, G343D, F365L, K373R, I376V
modifications: Synthetic Polypeptide sequence of Variant No. 255 of mature Human GLA
On to B9, for which the “Relative Activity of GLA Variants After No Challenge (NC)” value in series [1] is recorded as “+++ (+++ = >2.5 relative activity over Rd2BB (SEQ ID NO: 10))”. Besides, the “Relative Activity … at pH 4.2” value in series [2] is “+++ (+++ = >2.5 relative activity over Rd2BB (SEQ ID NO: 10))”. In addition, the “Relative Activity … at pH 7.6” value in series [3] is on record as “+++ (+++ = >2.5 relative activity over Rd2BB (SEQ ID NO: 10))”. Moreover, the “Relative Activity … with Serum” value in series [4] is “++ (++ = 1.5 to 2.5 relative activity over Rd2BB (SEQ ID NO: 10))”.

B10: 253 (protein)
chain: LDNGLARTPTMGWLHWERFMCNLDCQEEPDSCISEKLFMEMAELMVSEGWKDAGYEYLCIDDCWMAPQRDSEGRLQADPQRFPHGIRQLANYVHSIGLKLGIYADVGNKTCAGFPGSFGYYDIDAQTFADWGVDLLKFDGCYCDSLENLADGYKHMSLALNRTGRSIVYSCEWPLYMWPFQKPNYTEIRQYCNHWRNFADIDDSWASIKSILDWTSFNQERIVDVAGPGGWNDPDMLVIGNFGLSWDQQVTQMALWAIMAAPLFMSNDLRHISPQAKALLQDKDVIAINQDPLGKQGYQLRKGDNFEVWERPLSGDAWAVAMINRQEIGGPRSYTIPVASLGKGVACNPACFITQLLPVKRKLGFYDWDSRLRSHINPTGTVLLQLENTMQMSLKDLL
modifications: Synthetic Polypeptide sequence of Variant No. 253 of mature Human GLA
On to B10, for which the “Relative Activity of GLA Variants After No Challenge (NC)” value in series [1] is recorded as “+++ (+++ = >2.5 relative activity over Rd2BB (SEQ ID NO: 10))”. Moreover, the “Relative Activity … at pH 4.2” value in series [2] is reported as “+++ (+++ = >2.5 relative activity over Rd2BB (SEQ ID NO: 10))”. The “Relative Activity … at pH 7.6” value in series [3] is on record as “+++ (+++ = >2.5 relative activity over Rd2BB (SEQ ID NO: 10))”. Moreover, the “Relative Activity … with Serum” value in series [4] was “+++ (+++ = >2.5 relative activity over Rd2BB (SEQ ID NO: 10))”.
